No end group written: not given here. *: point of attachment. Acm = CC(=O)NC*

The target of assay [1] is T1, His-tagged PSMA (PSMA-His6), soluble ectodomain of prostate-specific membrane antigen (human, UniProt Q04609 44-750).
T1 construct: prostate-specific membrane antigen (PSMA), human, soluble ectodomain; also called soluble PSMA; poly-histidine tagged PSMA; source: bought: R&D Systems
Description: AlphaScreen or HTRF; competition: 563-biotin on streptavidin donor beads, PSMA-His6 on nickel chelate acceptor beads, unlabeled peptide at various concentrations; ambient temperature; 25 mM HEPES, 100 mM NaCl, pH 7.4; IC50 used to approximate KD. The conditions noted are these: both partners purified. For orientation: Alpha assays give light when donor and acceptor beads are brought close together.

The target of assay [2] is T1, His-tagged PSMA (PSMA-His6), soluble …. Description: immunostaining of cells or tissue; competition: LNCaP cells pre-incubated with soluble PSMA-His6 (100 nM, 2 h, 37°C) before the phage clones were added; loss of phage staining read by confocal microscopy (rfu in ten cells). The conditions noted are these: both partners purified.

T1 sequence (Q04609 44-750): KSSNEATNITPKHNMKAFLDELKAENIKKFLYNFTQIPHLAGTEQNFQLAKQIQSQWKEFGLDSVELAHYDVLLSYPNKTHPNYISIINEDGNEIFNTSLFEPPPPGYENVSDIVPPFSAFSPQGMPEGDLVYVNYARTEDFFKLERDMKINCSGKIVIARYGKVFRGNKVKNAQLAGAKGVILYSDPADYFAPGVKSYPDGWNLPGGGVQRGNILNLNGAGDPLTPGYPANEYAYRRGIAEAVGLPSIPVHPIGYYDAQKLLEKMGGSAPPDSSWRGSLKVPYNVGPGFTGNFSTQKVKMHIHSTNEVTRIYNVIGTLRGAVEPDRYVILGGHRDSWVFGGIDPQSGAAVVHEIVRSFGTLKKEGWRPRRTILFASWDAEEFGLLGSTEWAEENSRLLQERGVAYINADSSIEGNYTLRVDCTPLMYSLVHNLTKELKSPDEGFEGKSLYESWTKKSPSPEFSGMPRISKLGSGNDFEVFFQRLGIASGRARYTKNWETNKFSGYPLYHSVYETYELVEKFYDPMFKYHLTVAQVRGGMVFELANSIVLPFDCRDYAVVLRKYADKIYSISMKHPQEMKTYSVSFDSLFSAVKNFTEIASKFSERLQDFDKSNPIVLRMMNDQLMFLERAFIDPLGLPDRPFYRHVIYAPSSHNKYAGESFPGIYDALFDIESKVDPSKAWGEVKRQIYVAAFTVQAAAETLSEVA

B1: Peptide 564 (peptide)
peptide: LSFFSC(Acm)WLRRSFSLT
notes: 15-mer from phage clone G; Made on Rink amide resin, so a C-terminal amide is to be expected (surmised); source: synthetic peptide (HPLC purified)
A word on the IC50: it is the concentration needed to halve the response being measured. Higher therefore signals a need for much substance. The molecule B1 registered a half-maximal inhibitory concentration (IC50) in assay [1] of 1720 nM.

B2: Peptide 565 (peptide)
peptide: ARMFLLFLMRC(Acm)IGC(Acm)Y
modifications: not fully specified
notes: 15-mer from phage clone C; Made on Rink amide resin, so a C-terminal amide is to be expected (surmised); source: synthetic peptide (HPLC purified)
For B2, the IC50 in assay [1] is over 4830 nM.

B3: Phage clone 2 (round 2 of panning) (peptide)
chain: GTAVASRVYSLHSLM
notes: source: phage clone from the fUSE5 15-mer library, amplified in E. coli K91BluKan; not shown: bacteriophage coat protein (fd phage, fUSE5 library), C-terminal, kept
Take B3: in assay [2], the binding result was “binds”.
